# Laboratory results reported in PMC7495468.
# Biological target: HKU1-A HE ectodomain (human coronavirus HKU1 haemagglutinin-esterase, type A) (human coronavirus HKU1 (type A))
# Experiment: […] (4 mg/ml; SEC buffer 10 mM Tris-HCl pH 8, 50 mM NaCl), […]
substance,measurement,value
"HKU1-A HE ectodomain (human coronavirus HKU1 haemagglutinin-esterase, type A) (domain or fragment)",stoichiometry N,2
